T1: drRecJ WT (Deinococcus radiodurans, UniProt D0EM60 1-705)
T1 sequence: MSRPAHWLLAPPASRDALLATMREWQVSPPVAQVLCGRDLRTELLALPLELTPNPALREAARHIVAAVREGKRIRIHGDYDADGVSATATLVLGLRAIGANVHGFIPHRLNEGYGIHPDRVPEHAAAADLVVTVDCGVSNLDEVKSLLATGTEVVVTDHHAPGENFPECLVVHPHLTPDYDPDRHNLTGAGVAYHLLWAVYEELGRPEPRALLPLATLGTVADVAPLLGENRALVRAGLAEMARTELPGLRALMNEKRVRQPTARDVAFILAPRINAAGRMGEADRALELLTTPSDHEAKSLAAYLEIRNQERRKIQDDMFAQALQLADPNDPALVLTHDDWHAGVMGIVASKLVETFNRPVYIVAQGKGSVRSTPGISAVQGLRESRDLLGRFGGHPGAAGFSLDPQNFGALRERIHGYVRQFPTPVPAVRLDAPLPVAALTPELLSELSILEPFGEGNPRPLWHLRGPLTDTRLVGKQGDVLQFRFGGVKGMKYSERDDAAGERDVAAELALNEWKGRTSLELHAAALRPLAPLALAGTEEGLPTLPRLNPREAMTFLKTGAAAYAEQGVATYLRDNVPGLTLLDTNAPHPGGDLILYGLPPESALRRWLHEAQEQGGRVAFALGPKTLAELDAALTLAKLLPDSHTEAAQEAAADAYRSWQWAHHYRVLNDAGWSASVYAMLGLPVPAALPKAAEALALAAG

The target in this data set is T1, drRecJ WT. Nature of the data set: EMSA; no Mn2+ added; EMSA: 10 nM 3'-6-FAM ssDNA, 50 mM Tris-HCl pH 7.5, 150 mM KCl, 0.1 mg/ml BSA, 1 mM DTT, 5% glycerol, 20 min at 30 C; 8% native PAGE in TBE; Hill fit. The note with it: protein: recombinant; label: 3'-6-FAM. (In general: A gel shift assay detects complexes by their altered migration in electrophoresis.)
On to AAAAAAAAAAAAAAAAAAAA (ssDNA, 5'-P-dSpacer (tetrahydrofuran abasic, 5'-dRP mimic) added before A1) [KY11, 5'-P-dSpacer-(dA)20], for which the Kd worked out at 28.4 ± 3.1 nM.

As to AAAAAAAAAAAAAAAAAAAA (ssDNA) [KY08, (dA)20], the dissociation constant Kd worked out at 54.9 ± 5.18 nM.

Turning to AAAAAAAAAAAAAAAAAAAA (ssDNA, 5'-monophosphate) [KY10, 5'-P-(dA)20], the Kd stood at 33.9 ± 2.83 nM.

A word on the Kd: it is the free concentration of one partner at which half of the binding sites on the other are occupied at equilibrium, for simple one-to-one binding.
